Assay results reported in PMC10702442, “Arabidopsis thaliana Phytocystatin 6 Forms Functional Oligomer and Amyloid Fibril States” (Biochemistry, 2023).
Blank lines part the entries; values can stand above or below the molecule they belong to.

Experiments:
[1] = molecular target: AtCYT6-CTD_(long), the C-terminal domain containing the interdomain linker at its N-terminus (Arabidopsis thaliana); test: SEC; Superdex 75, 500 uL of protein at up to 2 mg/mL, 20 mM Tris pH 7.5, 50 mM NaCl, nonreducing, room temperature
[2] = molecular target: the molecule itself; test: SEC; Superdex 200, 500 uL of AtCYT6 at 2 mg/mL, 20 mM Tris pH 7.5, 50 mM NaCl, without or with 2 mM DTT, room temperature
[3] = molecular target: the molecule itself; test: cross-linking; 0.175% (w/v) glutaraldehyde, protein at 0.3 mg/mL in 20 mM citric acid pH 5.5, 100 mM NaCl, room temperature, 1, 5 and 10 min, read by SDS-PAGE
[4] = molecular target: the molecule itself; test: SEC; Superdex 75, 500 uL of protein at up to 2 mg/mL, 20 mM Tris pH 7.5, 50 mM NaCl, nonreducing, room temperature
[5] = molecular target: T1, Papain from Carica papaya (Carica papaya, UniProt P00784 134-345); test: cell-based or functional assay
T1 sequence (looked up): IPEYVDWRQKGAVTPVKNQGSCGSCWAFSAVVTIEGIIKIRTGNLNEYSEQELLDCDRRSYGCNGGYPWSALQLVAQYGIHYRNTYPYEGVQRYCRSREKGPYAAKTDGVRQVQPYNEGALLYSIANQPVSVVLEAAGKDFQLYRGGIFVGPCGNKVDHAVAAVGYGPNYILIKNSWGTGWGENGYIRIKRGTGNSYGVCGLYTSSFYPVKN

B1: Arabidopsis thaliana phytocystatin 6 (AtCYT6), full-length AtCYT6 lacking the N-terminal signal peptide (natural protein, UniProt Q8H0X6 35-234, looked up)
chain: ALVGGVGDVPANQNSGEVESLARFAVDEHNKKENALLEFARVVKAKEQVVAGTLHHLTLEILEAGQKKLYEAKVWVKPWLNFKELQEFKPASDAPAITSSDLGCKQGEHESGWREVPGDDPEVKHVAEQAVKTIQQRSNSLFPYELLEVVHAKAEVTGEAAKYNMLLKLKRGEKEEKFKVEVHKNHEGALHLNHAEQHHD
notes: Cystatin 6 (phytocystatin 6) of Arabidopsis thaliana without the N-terminal signal peptide (M1-M34); both cystatin domains and the interdomain linker with Cys138; pET-15b vector; In the functional rows on fibrils this protein stood as washed amyloid fibrils (heated at 80 °C, pH 3.0); also called cystatin 6 from A. thaliana; source: E. coli BL21 (DE3), purified (Ni2+ IMAC, gel filtration)
binding result [2]: binds

B2: AtCYT6, alkylated before cross-linking (natural protein, Arabidopsis thaliana, UniProt Q8H0X6 35-234, looked up)
chain: B1 chain
modifications: alkylated to prevent disulfide-mediated dimerization via Cys138
notes: As m1: cystatin 6 of Arabidopsis thaliana without the N-terminal signal peptide (M1-M34); Ala35 to Asp234 according to Uniprot ID Q8H0X6; source: E. coli BL21 (DE3), purified (Ni2+ IMAC, gel filtration), then alkylated
stoichiometry N [3]: 2

More lines, main results first:

stoichiometry N [1]: 2
Molecule: AtCYT6-CTD_(long), the C-terminal domain containing the interdomain linker at its N-terminus (domain or fragment)

IC50 of papain inhibition in a fluorescence substrate assay: dimer peak fraction of AtCYT6-NTD against the monomer peak fraction [5]: 10 fold
B3: AtCYT6-NTD, the isolated N-terminal cystatin domain of AtCYT6 (domain or fragment, Arabidopsis thaliana, UniProt Q8H0X6 35-127, looked up)
chain: ALVGGVGDVPANQNSGEVESLARFAVDEHNKKENALLEFARVVKAKEQVVAGTLHHLTLEILEAGQKKLYEAKVWVKPWLNFKELQEFKPASD
notes: N-terminal cystatin domain of cystatin 6 of Arabidopsis thaliana; no cysteine; The limits Ala35–Asp127 are printed for the AlphaFold model named AtCYT6-NTD, on Uniprot ID Q8H0X6; pET-28a vector; also called N-terminal domain; source: E. coli BL21 (DE3), purified (Ni2+ IMAC, gel filtration)
stoichiometry N [4]: 2
